Source: patent publication US20120172295A1 (INDIANA UNIVERSITY RESEARCH AND TECHNOLOGY, published 2012)
Positions of bridges follow the written chain, without caps; N, C: chain ends. Non-standard residues stand in square brackets, D forms with d. No end group written: not given here. *: point of attachment. Isobutyryl(2-imidazol-4-yl) = CC(C)(C(=O)*)c1c[nH]cn1; PEG = not defined here; Aib = CC(C)(N)C(=O)O

Key:
glucagon receptor = glucagon receptor (UniProt P47871 26-477, limits assumed); assay: cell-based or functional assay
Chain of glucagon receptor (P47871 26-477 limits assumed): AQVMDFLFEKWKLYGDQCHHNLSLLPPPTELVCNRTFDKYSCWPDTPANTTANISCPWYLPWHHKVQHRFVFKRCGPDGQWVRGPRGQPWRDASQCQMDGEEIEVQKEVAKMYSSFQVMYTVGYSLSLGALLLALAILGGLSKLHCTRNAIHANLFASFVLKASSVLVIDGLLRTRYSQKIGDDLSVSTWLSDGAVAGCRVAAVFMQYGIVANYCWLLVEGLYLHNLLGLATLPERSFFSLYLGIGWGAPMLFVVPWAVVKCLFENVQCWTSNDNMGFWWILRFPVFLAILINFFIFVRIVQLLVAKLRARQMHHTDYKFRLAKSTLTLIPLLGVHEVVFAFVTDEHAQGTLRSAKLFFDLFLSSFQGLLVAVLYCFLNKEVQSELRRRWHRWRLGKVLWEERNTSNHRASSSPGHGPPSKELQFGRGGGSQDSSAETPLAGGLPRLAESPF

GLP-1 receptor = GLP-1 receptor (UniProt P43220 24-463, limits assumed); assay: cell-based or functional assay

Binder | % Potency Relative to Native (glucagon receptor) [%] | % Potency Relative to Native (GLP-1 receptor) [%]
[Isobutyryl(2-imidazol-4-yl)]SQGTFTSDYSKYLDEQAAKEFICWLMNT-NH2 (lactam 16-20; SMILES CC[C@H](C)[C@H](NC(=O)[C@H](Cc1ccccc1)NC(=O)[C@H](CCC(=O)O)NC(=O)[C@@H]1CCCCNC(=O)CC[C@H](NC(=O)[C@H](CC(=O)O)NC(=O)[C@H](CC(C)C)NC(=O)[C@H](Cc2ccc(O)cc2)NC(=O)[C@H](CCCCN)NC(=O)[C@H](CO)NC(=O)[C@H](Cc2ccc(O)cc2)NC(=O)[C@H](CC(=O)O)NC(=O)[C@H](CO)NC(=O)[C@@H](NC(=O)[C@H](Cc2ccccc2)NC(=O)[C@@H](NC(=O)CNC(=O)[C@H](CCC(N)=O)NC(=O)[C@H](CO)NC(=O)C(C)(C)c2c[nH]cn2)[C@@H](C)O)[C@@H](C)O)C(=O)N[C@@H](CCC(N)=O)C(=O)N[C@@H](C)C(=O)N[C@@H](C)C(=O)N1)C(=O)N[C@@H](CS)C(=O)N[C@@H](Cc1c[nH]c2ccccc12)C(=O)N[C@@H](CC(C)C)C(=O)N[C@@H](CCSC)C(=O)N[C@@H](CC(N)=O)C(=O)N[C@H](C(N)=O)[C@@H](C)O) [Chimera DMIA1, Cys24 Lactam (SEQ ID NO: 505), parent w/o PEG] | 161 | 82.5
H[Aib]QGTFTSDYSKYLDEQAAKEFIAWLMNGGPSSGAPPPSC(PEG)-NH2 (reading uncertain) [Chimera AIB2, Gly29,30 Cys40 Cex (SEQ ID NO: 488), parent w/PEG] | 0.3 | 68.8
H[Aib]QGTFTSDYSKYLDEQAAKEFIC(PEG)WLMNGGPSSGAPPPS-NH2 (reading uncertain) [Chimera AIB2, Gly29,30 Cys24 Cex (SEQ ID NO: 490), parent w/PEG] | 0.2 | 95.4
H[Aib]QGTFTSDYSKYLDEQAAKEFICWLMNGGPSSGAPPPS-NH2 (lactam 16-20; N-terminus assumed; SMILES CC[C@H](C)[C@H](NC(=O)[C@H](Cc1ccccc1)NC(=O)[C@H](CCC(=O)O)NC(=O)[C@@H]1CCCCNC(=O)CC[C@H](NC(=O)[C@H](CC(=O)O)NC(=O)[C@H](CC(C)C)NC(=O)[C@H](Cc2ccc(O)cc2)NC(=O)[C@H](CCCCN)NC(=O)[C@H](CO)NC(=O)[C@H](Cc2ccc(O)cc2)NC(=O)[C@H](CC(=O)O)NC(=O)[C@H](CO)NC(=O)[C@@H](NC(=O)[C@H](Cc2ccccc2)NC(=O)[C@@H](NC(=O)CNC(=O)[C@H](CCC(N)=O)NC(=O)C(C)(C)NC(=O)[C@@H](N)Cc2c[nH]cn2)[C@@H](C)O)[C@@H](C)O)C(=O)N[C@@H](CCC(N)=O)C(=O)N[C@@H](C)C(=O)N[C@@H](C)C(=O)N1)C(=O)N[C@@H](CS)C(=O)N[C@@H](Cc1c[nH]c2ccccc12)C(=O)N[C@@H](CC(C)C)C(=O)N[C@@H](CCSC)C(=O)N[C@@H](CC(N)=O)C(=O)NCC(=O)NCC(=O)N1CCC[C@H]1C(=O)N[C@@H](CO)C(=O)N[C@@H](CO)C(=O)NCC(=O)N[C@@H](C)C(=O)N1CCC[C@H]1C(=O)N1CCC[C@H]1C(=O)N1CCC[C@H]1C(=O)N[C@@H](CO)C(N)=O) [Chimera AIB2, Gly29,30 Cys24 Cex Lactam (SEQ ID NO: 491), parent w/o PEG] | 25.2 | 382
H[Aib]QGTFTSDYSKYLDEQAAKEFIC(PEG)WLMNGGPSSGAPPPS-NH2 (lactam 16-20; reading uncertain) [Chimera AIB2, Gly29,30 Cys24 Cex Lactam (SEQ ID NO: 491), parent w/PEG] | 1.4 | 96.4
[Isobutyryl(2-imidazol-4-yl)]SQGTFTSDYSKYLDEQAAKEFIC(PEG)WLMNT-NH2 (lactam 16-20; reading uncertain) [Chimera DMIA1, Cys24 Lactam (SEQ ID NO: 505), parent w/PEG] | 19.1 | 12.5
H[Aib]QGTFTSDYSKYLDEQAAKEFICWLMNGGPSSGAPPPS-NH2 (N-terminus assumed; SMILES CC[C@H](C)[C@H](NC(=O)[C@H](Cc1ccccc1)NC(=O)[C@H](CCC(=O)O)NC(=O)[C@H](CCCCN)NC(=O)[C@H](C)NC(=O)[C@H](C)NC(=O)[C@H](CCC(N)=O)NC(=O)[C@H](CCC(=O)O)NC(=O)[C@H](CC(=O)O)NC(=O)[C@H](CC(C)C)NC(=O)[C@H](Cc1ccc(O)cc1)NC(=O)[C@H](CCCCN)NC(=O)[C@H](CO)NC(=O)[C@H](Cc1ccc(O)cc1)NC(=O)[C@H](CC(=O)O)NC(=O)[C@H](CO)NC(=O)[C@@H](NC(=O)[C@H](Cc1ccccc1)NC(=O)[C@@H](NC(=O)CNC(=O)[C@H](CCC(N)=O)NC(=O)C(C)(C)NC(=O)[C@@H](N)Cc1c[nH]cn1)[C@@H](C)O)[C@@H](C)O)C(=O)N[C@@H](CS)C(=O)N[C@@H](Cc1c[nH]c2ccccc12)C(=O)N[C@@H](CC(C)C)C(=O)N[C@@H](CCSC)C(=O)N[C@@H](CC(N)=O)C(=O)NCC(=O)NCC(=O)N1CCC[C@H]1C(=O)N[C@@H](CO)C(=O)N[C@@H](CO)C(=O)NCC(=O)N[C@@H](C)C(=O)N1CCC[C@H]1C(=O)N1CCC[C@H]1C(=O)N1CCC[C@H]1C(=O)N[C@@H](CO)C(N)=O) [Chimera AIB2, Gly29,30 Cys24 Cex (SEQ ID NO: 490), parent w/o PEG] | 2.5 | 458
H[Aib]QGTFTSDYSKYLDEQAAKEFIAWLMNGGPSSGAPPPSC-NH2 (lactam 16-20; N-terminus assumed; SMILES CC[C@H](C)[C@H](NC(=O)[C@H](Cc1ccccc1)NC(=O)[C@H](CCC(=O)O)NC(=O)[C@@H]1CCCCNC(=O)CC[C@H](NC(=O)[C@H](CC(=O)O)NC(=O)[C@H](CC(C)C)NC(=O)[C@H](Cc2ccc(O)cc2)NC(=O)[C@H](CCCCN)NC(=O)[C@H](CO)NC(=O)[C@H](Cc2ccc(O)cc2)NC(=O)[C@H](CC(=O)O)NC(=O)[C@H](CO)NC(=O)[C@@H](NC(=O)[C@H](Cc2ccccc2)NC(=O)[C@@H](NC(=O)CNC(=O)[C@H](CCC(N)=O)NC(=O)C(C)(C)NC(=O)[C@@H](N)Cc2c[nH]cn2)[C@@H](C)O)[C@@H](C)O)C(=O)N[C@@H](CCC(N)=O)C(=O)N[C@@H](C)C(=O)N[C@@H](C)C(=O)N1)C(=O)N[C@@H](C)C(=O)N[C@@H](Cc1c[nH]c2ccccc12)C(=O)N[C@@H](CC(C)C)C(=O)N[C@@H](CCSC)C(=O)N[C@@H](CC(N)=O)C(=O)NCC(=O)NCC(=O)N1CCC[C@H]1C(=O)N[C@@H](CO)C(=O)N[C@@H](CO)C(=O)NCC(=O)N[C@@H](C)C(=O)N1CCC[C@H]1C(=O)N1CCC[C@H]1C(=O)N1CCC[C@H]1C(=O)N[C@@H](CO)C(=O)N[C@@H](CS)C(N)=O) [Chimera AIB2, Gly29,30 Cys40 Cex Lactam (SEQ ID NO: 489), parent w/o PEG] | 14.2 | 170
H[Aib]QGTFTSDYSKYLDERAAKDFVC(PEG)WLMNGGPSSGAPPPS-NH2 (not fully specified; reading uncertain) [E16, K20AIB2, A18 Gly29,30 Cys24 Cex (SEQ ID NO: 496), parent w/PEG] | 0.1 | 88.5
H[Aib]QGTFTSDYSKYLDERAAKDFVC(PEG)WLMNT-NH2 (reading uncertain) [E16, K20AIB2, A18 Cys24 (SEQ ID NO: 492), parent w/PEG] | 1.1 | 73.5
H[Aib]QGTFTSDYSKYLDEQAAKEFIAWLMNC-NH2 (N-terminus assumed; SMILES CC[C@H](C)[C@H](NC(=O)[C@H](Cc1ccccc1)NC(=O)[C@H](CCC(=O)O)NC(=O)[C@H](CCCCN)NC(=O)[C@H](C)NC(=O)[C@H](C)NC(=O)[C@H](CCC(N)=O)NC(=O)[C@H](CCC(=O)O)NC(=O)[C@H](CC(=O)O)NC(=O)[C@H](CC(C)C)NC(=O)[C@H](Cc1ccc(O)cc1)NC(=O)[C@H](CCCCN)NC(=O)[C@H](CO)NC(=O)[C@H](Cc1ccc(O)cc1)NC(=O)[C@H](CC(=O)O)NC(=O)[C@H](CO)NC(=O)[C@@H](NC(=O)[C@H](Cc1ccccc1)NC(=O)[C@@H](NC(=O)CNC(=O)[C@H](CCC(N)=O)NC(=O)C(C)(C)NC(=O)[C@@H](N)Cc1c[nH]cn1)[C@@H](C)O)[C@@H](C)O)C(=O)N[C@@H](C)C(=O)N[C@@H](Cc1c[nH]c2ccccc12)C(=O)N[C@@H](CC(C)C)C(=O)N[C@@H](CCSC)C(=O)N[C@@H](CC(N)=O)C(=O)N[C@@H](CS)C(N)=O) [Chimera AIB2, Cys29 (SEQ ID NO: 487), parent w/o PEG] | 20.1 | 125
H[Aib]QGTFTSDYSKYLDEQAAKEFIAWLMNGGPSSGAPPPSC-NH2 (N-terminus assumed; SMILES CC[C@H](C)[C@H](NC(=O)[C@H](Cc1ccccc1)NC(=O)[C@H](CCC(=O)O)NC(=O)[C@H](CCCCN)NC(=O)[C@H](C)NC(=O)[C@H](C)NC(=O)[C@H](CCC(N)=O)NC(=O)[C@H](CCC(=O)O)NC(=O)[C@H](CC(=O)O)NC(=O)[C@H](CC(C)C)NC(=O)[C@H](Cc1ccc(O)cc1)NC(=O)[C@H](CCCCN)NC(=O)[C@H](CO)NC(=O)[C@H](Cc1ccc(O)cc1)NC(=O)[C@H](CC(=O)O)NC(=O)[C@H](CO)NC(=O)[C@@H](NC(=O)[C@H](Cc1ccccc1)NC(=O)[C@@H](NC(=O)CNC(=O)[C@H](CCC(N)=O)NC(=O)C(C)(C)NC(=O)[C@@H](N)Cc1c[nH]cn1)[C@@H](C)O)[C@@H](C)O)C(=O)N[C@@H](C)C(=O)N[C@@H](Cc1c[nH]c2ccccc12)C(=O)N[C@@H](CC(C)C)C(=O)N[C@@H](CCSC)C(=O)N[C@@H](CC(N)=O)C(=O)NCC(=O)NCC(=O)N1CCC[C@H]1C(=O)N[C@@H](CO)C(=O)N[C@@H](CO)C(=O)NCC(=O)N[C@@H](C)C(=O)N1CCC[C@H]1C(=O)N1CCC[C@H]1C(=O)N1CCC[C@H]1C(=O)N[C@@H](CO)C(=O)N[C@@H](CS)C(N)=O) [Chimera AIB2, Gly29,30 Cys40 Cex (SEQ ID NO: 488), parent w/o PEG] | 2.2 | 359
H[Aib]QGTFTSDYSKYLDEQAAKEFIAWLMNC(PEG)-NH2 (reading uncertain) [Chimera AIB2, Cys29 (SEQ ID NO: 487), parent w/PEG] | 5.6 | 54.3
H[Aib]QGTFTSDYSKYLDEQAAKEFIAWLMNGGPSSGAPPPSC(PEG)-NH2 (lactam 16-20; reading uncertain) [Chimera AIB2, Gly29,30 Cys40 Cex Lactam (SEQ ID NO: 489), parent w/PEG] | 3.2 | 63.6
